The record followed here is patent publication US20150344570A1 (published 2015).

Test [1] concerns the target T1, FcγRIa extracellular domain with C-terminal His tag (human, UniProt P12314 16-292).
T1 construct: extracellular domain; expressed in FreeStyle293 cells; analyte in Biacore; also called FcgRI; 1a
The test is described as follows: SPR (Biacore), captured antibody, FcγR as analyte; relative binding. (Surface plasmon resonance follows binding to a sensor surface in real time, without labels.)

The target in test [2] is T2, FcγRIIb extracellular domain with C-terminal His tag (human, UniProt P31994 43-217).
T2 construct: extracellular domain; expressed in FreeStyle293 cells; analyte in Biacore; also called FcgRIIb; 2b
T2 sequence (looked up): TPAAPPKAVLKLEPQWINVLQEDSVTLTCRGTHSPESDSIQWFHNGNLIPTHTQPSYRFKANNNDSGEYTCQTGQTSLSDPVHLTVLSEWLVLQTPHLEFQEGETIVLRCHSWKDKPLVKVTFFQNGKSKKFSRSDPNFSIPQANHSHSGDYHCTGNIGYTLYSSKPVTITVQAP
The description is as above.

Test [3] addresses T3, FcγRIa (human, UniProt P12314 16-292).
T3 construct: extracellular domain; also called FcgRI; 1a
The experiment in a line: SPR (Biacore); He Ab relative to HeCon Ab = 100. In outline: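 Antibodies were captured on antigen-peptide chips (amine-coupled to CM5, or biotinylated peptide on SA), then FcγR diluted in HBS-EP+ running buffer was injected as analyte at 25° C. Chips were regenerated with 10 mM glycine-HCl, pH 1.5 between cycles.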

T1 sequence (P12314 16-292): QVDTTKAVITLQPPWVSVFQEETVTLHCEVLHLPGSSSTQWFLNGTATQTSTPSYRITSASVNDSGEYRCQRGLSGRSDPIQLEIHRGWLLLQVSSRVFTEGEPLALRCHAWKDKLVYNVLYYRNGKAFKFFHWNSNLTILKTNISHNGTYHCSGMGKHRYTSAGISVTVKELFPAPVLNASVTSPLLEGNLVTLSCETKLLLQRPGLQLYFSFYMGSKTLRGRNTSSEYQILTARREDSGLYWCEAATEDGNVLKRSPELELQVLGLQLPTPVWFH
T3 sequence (P12314 16-292): as above

B1: GpH7-A5/GpH7-B3 variant K326_12R/GpL16-k0 (antibody, human IgG1, kappa)
heavy 1: not shown
heavy 2: not shown
light: DIVMTQSPLSLPVTPGEPASISCQASESLVHSNRNTYLHWYLQKPGQSPQLLIYKVSNRFSGVPDRFSGSGSGTDFTLKISRVEAEDVGVYYCSQNTHVPPTFGQGTKVEIERTVAAPSVFIFPPSDEQLKSGTASVVCLLNNFYPREAKVQWKVDNALQSGNSQESVTEQDSKDSTYSLSSTLTLSKADYEKHKVYACEVTHQGLSSPVTKSFNRGEC
notes: He Ab; IgG1, mutation in one H chain
Turning to B1, the He/Con_1a in test [1] is 100 % of HeCon Ab (GpH7-A5/GpH7-B3/GpL16-k0 = 100). For the same molecule, in test [2], the He/Con_2b is 89.2 % of HeCon Ab (GpH7-A5/GpH7-B3/GpL16-k0 = 100).

B2: GpH7-A5/GpH7-B3 variant Q295_13S/GpL16-k0 (antibody, human IgG1, kappa)
heavy 1: not shown
heavy 2: not shown
light: DIVMTQSPLSLPVTPGEPASISCQASESLVHSNRNTYLHWYLQKPGQSPQLLIYKVSNRFSGVPDRFSGSGSGTDFTLKISRVEAEDVGVYYCSQNTHVPPTFGQGTKVEIERTVAAPSVFIFPPSDEQLKSGTASVVCLLNNFYPREAKVQWKVDNALQSGNSQESVTEQDSKDSTYSLSSTLTLSKADYEKHKVYACEVTHQGLSSPVTKSFNRGEC
notes: as for B1
In the case of B2, the He/Con_1a in test [1] is 102 % of HeCon Ab (GpH7-A5/GpH7-B3/GpL16-k0 = 100). Besides, the He/Con_2b in test [2] is 56.9 % of HeCon Ab (GpH7-A5/GpH7-B3/GpL16-k0 = 100).

B3: GpH7-A5/GpH7-B3 variant Q295_09D/GpL16-k0 (antibody, human IgG1, kappa)
heavy 1: not shown
heavy 2: not shown
light: DIVMTQSPLSLPVTPGEPASISCQASESLVHSNRNTYLHWYLQKPGQSPQLLIYKVSNRFSGVPDRFSGSGSGTDFTLKISRVEAEDVGVYYCSQNTHVPPTFGQGTKVEIERTVAAPSVFIFPPSDEQLKSGTASVVCLLNNFYPREAKVQWKVDNALQSGNSQESVTEQDSKDSTYSLSSTLTLSKADYEKHKVYACEVTHQGLSSPVTKSFNRGEC
notes: as for B1
Take B3: in test [1], the He/Con_1a was 100 % of HeCon Ab (GpH7-A5/GpH7-B3/GpL16-k0 = 100). For the same molecule, the He/Con_2b in test [2] is 60.8 % of HeCon Ab (GpH7-A5/GpH7-B3/GpL16-k0 = 100).

B4: GpH7-A5/GpH7-B3 variant Q295_11K/GpL16-k0 (antibody, human IgG1, kappa)
heavy 1: not shown
heavy 2: not shown
light: DIVMTQSPLSLPVTPGEPASISCQASESLVHSNRNTYLHWYLQKPGQSPQLLIYKVSNRFSGVPDRFSGSGSGTDFTLKISRVEAEDVGVYYCSQNTHVPPTFGQGTKVEIERTVAAPSVFIFPPSDEQLKSGTASVVCLLNNFYPREAKVQWKVDNALQSGNSQESVTEQDSKDSTYSLSSTLTLSKADYEKHKVYACEVTHQGLSSPVTKSFNRGEC
notes: also called He Ab Q295_11K
As to B4, the He/Con_1a in test [3] is 101 % of control.

B5: GpH7-A5/GpH7-B3 variant Q295_15Y/GpL16-k0 (antibody, human IgG1, kappa)
heavy 1: not shown
heavy 2: not shown
light: DIVMTQSPLSLPVTPGEPASISCQASESLVHSNRNTYLHWYLQKPGQSPQLLIYKVSNRFSGVPDRFSGSGSGTDFTLKISRVEAEDVGVYYCSQNTHVPPTFGQGTKVEIERTVAAPSVFIFPPSDEQLKSGTASVVCLLNNFYPREAKVQWKVDNALQSGNSQESVTEQDSKDSTYSLSSTLTLSKADYEKHKVYACEVTHQGLSSPVTKSFNRGEC
notes: as for B1
B5: in test [1], the He/Con_1a was 102 % of HeCon Ab (GpH7-A5/GpH7-B3/GpL16-k0 = 100). Besides, the He/Con_2b in test [2] is 65.4 % of HeCon Ab (GpH7-A5/GpH7-B3/GpL16-k0 = 100).

B6: GpH7-A5/GpH7-B3 variant P271_16H/GpL16-k0 (antibody, human IgG1, kappa)
heavy 1: not shown
heavy 2: not shown
light: DIVMTQSPLSLPVTPGEPASISCQASESLVHSNRNTYLHWYLQKPGQSPQLLIYKVSNRFSGVPDRFSGSGSGTDFTLKISRVEAEDVGVYYCSQNTHVPPTFGQGTKVEIERTVAAPSVFIFPPSDEQLKSGTASVVCLLNNFYPREAKVQWKVDNALQSGNSQESVTEQDSKDSTYSLSSTLTLSKADYEKHKVYACEVTHQGLSSPVTKSFNRGEC
notes: also called He Ab P271_16H
For B6, the He/Con_1a in test [3] is 102 % of control.

B7: GpH7-A5/GpH7-B3 variant P329_02A/GpL16-k0 (antibody, human IgG1, kappa)
heavy 1: not shown
heavy 2: not shown
light: DIVMTQSPLSLPVTPGEPASISCQASESLVHSNRNTYLHWYLQKPGQSPQLLIYKVSNRFSGVPDRFSGSGSGTDFTLKISRVEAEDVGVYYCSQNTHVPPTFGQGTKVEIERTVAAPSVFIFPPSDEQLKSGTASVVCLLNNFYPREAKVQWKVDNALQSGNSQESVTEQDSKDSTYSLSSTLTLSKADYEKHKVYACEVTHQGLSSPVTKSFNRGEC
notes: also called He Ab P329_02A
With B7, the He/Con_1a in test [3] is 102 % of control.

B8: GpH7-A5/GpH7-B3 variant Q295_12R/GpL16-k0 (antibody, human IgG1, kappa)
heavy 1: not shown
heavy 2: not shown
light: DIVMTQSPLSLPVTPGEPASISCQASESLVHSNRNTYLHWYLQKPGQSPQLLIYKVSNRFSGVPDRFSGSGSGTDFTLKISRVEAEDVGVYYCSQNTHVPPTFGQGTKVEIERTVAAPSVFIFPPSDEQLKSGTASVVCLLNNFYPREAKVQWKVDNALQSGNSQESVTEQDSKDSTYSLSSTLTLSKADYEKHKVYACEVTHQGLSSPVTKSFNRGEC
notes: as for B1
Consider B8, for which, in test [1], the He/Con_1a is 100 % of HeCon Ab (GpH7-A5/GpH7-B3/GpL16-k0 = 100). Further, the He/Con_2b in test [2] is 65.2 % of HeCon Ab (GpH7-A5/GpH7-B3/GpL16-k0 = 100).

B9: GpH7-A5/GpH7-B3 variant Q295_18N/GpL16-k0 (antibody, human IgG1, kappa)
heavy 1: not shown
heavy 2: not shown
light: DIVMTQSPLSLPVTPGEPASISCQASESLVHSNRNTYLHWYLQKPGQSPQLLIYKVSNRFSGVPDRFSGSGSGTDFTLKISRVEAEDVGVYYCSQNTHVPPTFGQGTKVEIERTVAAPSVFIFPPSDEQLKSGTASVVCLLNNFYPREAKVQWKVDNALQSGNSQESVTEQDSKDSTYSLSSTLTLSKADYEKHKVYACEVTHQGLSSPVTKSFNRGEC
notes: as for B1
B9: the He/Con_1a in test [1] is 102 % of HeCon Ab (GpH7-A5/GpH7-B3/GpL16-k0 = 100). Further, the He/Con_2b in test [2] was 64.9 % of HeCon Ab (GpH7-A5/GpH7-B3/GpL16-k0 = 100).
